According to IntAct's records for PubMed 34063696:

B1: BolA-like protein 3 (Homo sapiens), Q53S33 (parent)
chain: MAAWSPAAAAPLLRGIRGLPLHHRMFATQTEGELRVTQILKEKFPRATAIKVTDISGGCGAMYEIKIESEEFKEKRTVQQHQMVNQALKEEIKEMHGLRIFTSVPKR
partner: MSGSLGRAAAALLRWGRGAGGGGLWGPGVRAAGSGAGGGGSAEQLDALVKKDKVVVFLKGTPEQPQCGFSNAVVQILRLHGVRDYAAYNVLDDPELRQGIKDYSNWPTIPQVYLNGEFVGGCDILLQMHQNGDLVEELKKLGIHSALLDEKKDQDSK

Variants of: B1
Details: with glrx5_human GLRX5, Q86SX6

| effect of a mutation on the interaction | Variant |
| --- | --- |
| with no effect | C59Y |
